Results reported in patent US20260055369A1 (H LEE MOFFITT CANCER CENTER AND RESEARCH INSTITUTE, published 2026).
Changes are numbered by the printed parent chain.

Tests used:
[1] = biological target: T1, Notch1 on CHO-K1 N1-Gal4 fluorescent reporter cells (UniProt P46531 19-2555, limits assumed); assay: cell-based or functional assay
[2] = biological target: Notch1 on U2OS hNotch1-Gal4 luciferase reporter cells (human, UniProt P46531 19-2555); assay: cell-based or functional assay
[3] = biological target: Notch2 on U2OS Notch2-Gal4 luciferase reporter cells (human, UniProt Q04721 26-2471); assay: cell-based or functional assay
[4] = biological target: Notch3 on U2OS Notch3-Gal4 luciferase reporter cells (human, UniProt Q9UM47 40-2321); assay: cell-based or functional assay
Chain of Notch3 on U2OS Notch3-Gal4 luciferase reporter cells (Q9UM47 40-2321): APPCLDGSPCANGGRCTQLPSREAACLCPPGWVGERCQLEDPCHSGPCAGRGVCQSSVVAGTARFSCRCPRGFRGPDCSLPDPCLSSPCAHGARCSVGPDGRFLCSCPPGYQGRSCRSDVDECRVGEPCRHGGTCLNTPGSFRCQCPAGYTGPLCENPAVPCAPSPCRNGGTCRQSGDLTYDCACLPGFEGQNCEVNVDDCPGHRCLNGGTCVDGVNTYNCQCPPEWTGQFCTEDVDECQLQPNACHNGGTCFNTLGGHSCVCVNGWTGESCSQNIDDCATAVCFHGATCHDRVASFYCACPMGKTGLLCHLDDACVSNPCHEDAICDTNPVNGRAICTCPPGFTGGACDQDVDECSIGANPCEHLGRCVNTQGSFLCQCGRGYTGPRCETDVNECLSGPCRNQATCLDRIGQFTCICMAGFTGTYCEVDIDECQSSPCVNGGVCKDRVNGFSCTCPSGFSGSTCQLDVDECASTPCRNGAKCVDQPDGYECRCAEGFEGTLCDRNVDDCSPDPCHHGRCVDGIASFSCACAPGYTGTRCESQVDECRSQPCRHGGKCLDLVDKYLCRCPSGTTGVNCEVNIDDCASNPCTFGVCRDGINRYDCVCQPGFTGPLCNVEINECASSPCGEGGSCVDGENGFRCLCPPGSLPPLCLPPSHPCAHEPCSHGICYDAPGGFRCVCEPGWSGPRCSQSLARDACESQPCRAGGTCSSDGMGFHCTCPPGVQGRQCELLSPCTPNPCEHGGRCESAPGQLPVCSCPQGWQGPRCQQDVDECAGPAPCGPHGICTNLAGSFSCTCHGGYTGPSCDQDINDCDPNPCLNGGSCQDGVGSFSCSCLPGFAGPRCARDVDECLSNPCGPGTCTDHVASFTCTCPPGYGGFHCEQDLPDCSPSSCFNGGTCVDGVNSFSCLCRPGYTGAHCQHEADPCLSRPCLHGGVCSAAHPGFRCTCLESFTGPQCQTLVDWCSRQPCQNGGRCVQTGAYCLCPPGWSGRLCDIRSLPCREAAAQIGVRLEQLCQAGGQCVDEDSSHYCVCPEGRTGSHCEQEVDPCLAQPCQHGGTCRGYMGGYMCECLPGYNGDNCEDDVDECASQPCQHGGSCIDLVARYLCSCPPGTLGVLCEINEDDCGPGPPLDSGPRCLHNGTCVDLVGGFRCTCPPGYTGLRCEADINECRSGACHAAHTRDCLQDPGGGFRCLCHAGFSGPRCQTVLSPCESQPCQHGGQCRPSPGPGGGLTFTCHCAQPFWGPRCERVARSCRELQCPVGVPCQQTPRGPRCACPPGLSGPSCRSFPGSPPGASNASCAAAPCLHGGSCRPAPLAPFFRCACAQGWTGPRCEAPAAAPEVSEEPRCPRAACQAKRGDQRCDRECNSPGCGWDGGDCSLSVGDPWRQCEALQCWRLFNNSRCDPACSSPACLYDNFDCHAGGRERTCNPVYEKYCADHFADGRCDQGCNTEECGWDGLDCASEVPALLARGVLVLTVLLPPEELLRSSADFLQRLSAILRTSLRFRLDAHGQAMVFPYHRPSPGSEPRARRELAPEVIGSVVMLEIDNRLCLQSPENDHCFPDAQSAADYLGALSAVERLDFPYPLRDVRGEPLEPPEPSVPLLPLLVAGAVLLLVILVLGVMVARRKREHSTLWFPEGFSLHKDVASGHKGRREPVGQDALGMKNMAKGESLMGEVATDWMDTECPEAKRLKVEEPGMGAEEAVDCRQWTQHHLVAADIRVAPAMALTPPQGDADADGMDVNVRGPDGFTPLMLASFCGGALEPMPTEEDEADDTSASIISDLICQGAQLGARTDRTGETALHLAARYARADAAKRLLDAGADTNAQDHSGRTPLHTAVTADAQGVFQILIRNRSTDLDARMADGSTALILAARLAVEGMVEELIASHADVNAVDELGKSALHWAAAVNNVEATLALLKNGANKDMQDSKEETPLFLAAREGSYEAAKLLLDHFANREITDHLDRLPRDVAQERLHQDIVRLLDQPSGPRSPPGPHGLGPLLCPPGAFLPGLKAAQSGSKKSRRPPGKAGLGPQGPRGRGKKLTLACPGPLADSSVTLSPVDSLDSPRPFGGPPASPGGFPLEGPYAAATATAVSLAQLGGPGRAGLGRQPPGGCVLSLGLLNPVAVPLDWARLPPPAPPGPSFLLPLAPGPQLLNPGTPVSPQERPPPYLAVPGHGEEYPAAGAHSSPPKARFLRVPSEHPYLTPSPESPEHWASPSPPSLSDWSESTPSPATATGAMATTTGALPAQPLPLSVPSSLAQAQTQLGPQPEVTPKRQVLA

[5] = biological target: T1, Notch1 on CHO-K1 N1-Gal4 fluorescent …; assay: flow cytometry, ligand tetramers on Notch1-overexpressing CHO-K1 N1-Gal4 cells
[6] = biological target: T2, mouse Notch1 (EGF6-13, residues 221-526), biotinylated (mouse, UniProt Q01705 221-526, Biotinylated in vitro by BirA at the C-terminal BAP-tag (tag not in the letters).); assay: SPR steady-state binding isotherm, biotinylated mNotch1 (EGF6-13) on a streptavidin chip, DLL4 variant as analyte, response normalized to the maximum (100%)
T2 construct: Immobilised on a streptavidin chip for SPR; also called mNotch1 EGF6-13; mNotch1 (6-13)
T2 sequence: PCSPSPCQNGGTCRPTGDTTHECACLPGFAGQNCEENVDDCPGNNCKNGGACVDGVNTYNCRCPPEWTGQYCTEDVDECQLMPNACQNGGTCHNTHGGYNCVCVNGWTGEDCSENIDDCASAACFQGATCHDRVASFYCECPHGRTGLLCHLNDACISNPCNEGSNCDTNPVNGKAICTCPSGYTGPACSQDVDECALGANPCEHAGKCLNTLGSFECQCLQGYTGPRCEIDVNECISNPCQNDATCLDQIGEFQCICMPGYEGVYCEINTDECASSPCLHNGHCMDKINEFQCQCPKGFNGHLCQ
From the text: Extended Data FIG. 5. Quantitation of mNotch1 binding to DLL4 variants, ligand adsorption, and Notch surface expression. a, SPR binding isotherms were fitted to a 1:1 binding model to determine the binding affinity between mNotch1 (6-13) and each DLL4 variant. b, Determination of plate adsorption for WT DLL4 and Delta^MAX by ELISA. Data represent mean values±s.d. of three biological replicates. c, Binding assay of WT DLL4 and Delta^MAX tetramers to Notch1 overexpressing CHO-K1 N1-Gal4 cells was measured by flow cytometry. Data represent mean values±s.d. of three biological replicates. d, The level of Notch1 expression on the surface of cell lines used in this study was determined by flow cytometry. Data represent mean values±s.d. of three biological replicates. e, Percentage of CD8⁺ T cells expressing Notch1 (upper graph) and Notch2 (bottom graph) on cell surface determined by flow cytometry after stimulation with K32-WT DLL4, K32-Delta^MAX, or K32 for 96 hours. Data represent mean values±s.e.m. of three biological replicates. Delta^MAX statistics are referred to WT DLL4. *P<0.05, ****P<0.0001 (Two-way ANOVA).
Equilibrium dissociation constants were determined by surface plasmon resonance using a Biacore T200 instrument (GE Healthcare). […]

T1 sequence (P46531 19-2555 limits assumed): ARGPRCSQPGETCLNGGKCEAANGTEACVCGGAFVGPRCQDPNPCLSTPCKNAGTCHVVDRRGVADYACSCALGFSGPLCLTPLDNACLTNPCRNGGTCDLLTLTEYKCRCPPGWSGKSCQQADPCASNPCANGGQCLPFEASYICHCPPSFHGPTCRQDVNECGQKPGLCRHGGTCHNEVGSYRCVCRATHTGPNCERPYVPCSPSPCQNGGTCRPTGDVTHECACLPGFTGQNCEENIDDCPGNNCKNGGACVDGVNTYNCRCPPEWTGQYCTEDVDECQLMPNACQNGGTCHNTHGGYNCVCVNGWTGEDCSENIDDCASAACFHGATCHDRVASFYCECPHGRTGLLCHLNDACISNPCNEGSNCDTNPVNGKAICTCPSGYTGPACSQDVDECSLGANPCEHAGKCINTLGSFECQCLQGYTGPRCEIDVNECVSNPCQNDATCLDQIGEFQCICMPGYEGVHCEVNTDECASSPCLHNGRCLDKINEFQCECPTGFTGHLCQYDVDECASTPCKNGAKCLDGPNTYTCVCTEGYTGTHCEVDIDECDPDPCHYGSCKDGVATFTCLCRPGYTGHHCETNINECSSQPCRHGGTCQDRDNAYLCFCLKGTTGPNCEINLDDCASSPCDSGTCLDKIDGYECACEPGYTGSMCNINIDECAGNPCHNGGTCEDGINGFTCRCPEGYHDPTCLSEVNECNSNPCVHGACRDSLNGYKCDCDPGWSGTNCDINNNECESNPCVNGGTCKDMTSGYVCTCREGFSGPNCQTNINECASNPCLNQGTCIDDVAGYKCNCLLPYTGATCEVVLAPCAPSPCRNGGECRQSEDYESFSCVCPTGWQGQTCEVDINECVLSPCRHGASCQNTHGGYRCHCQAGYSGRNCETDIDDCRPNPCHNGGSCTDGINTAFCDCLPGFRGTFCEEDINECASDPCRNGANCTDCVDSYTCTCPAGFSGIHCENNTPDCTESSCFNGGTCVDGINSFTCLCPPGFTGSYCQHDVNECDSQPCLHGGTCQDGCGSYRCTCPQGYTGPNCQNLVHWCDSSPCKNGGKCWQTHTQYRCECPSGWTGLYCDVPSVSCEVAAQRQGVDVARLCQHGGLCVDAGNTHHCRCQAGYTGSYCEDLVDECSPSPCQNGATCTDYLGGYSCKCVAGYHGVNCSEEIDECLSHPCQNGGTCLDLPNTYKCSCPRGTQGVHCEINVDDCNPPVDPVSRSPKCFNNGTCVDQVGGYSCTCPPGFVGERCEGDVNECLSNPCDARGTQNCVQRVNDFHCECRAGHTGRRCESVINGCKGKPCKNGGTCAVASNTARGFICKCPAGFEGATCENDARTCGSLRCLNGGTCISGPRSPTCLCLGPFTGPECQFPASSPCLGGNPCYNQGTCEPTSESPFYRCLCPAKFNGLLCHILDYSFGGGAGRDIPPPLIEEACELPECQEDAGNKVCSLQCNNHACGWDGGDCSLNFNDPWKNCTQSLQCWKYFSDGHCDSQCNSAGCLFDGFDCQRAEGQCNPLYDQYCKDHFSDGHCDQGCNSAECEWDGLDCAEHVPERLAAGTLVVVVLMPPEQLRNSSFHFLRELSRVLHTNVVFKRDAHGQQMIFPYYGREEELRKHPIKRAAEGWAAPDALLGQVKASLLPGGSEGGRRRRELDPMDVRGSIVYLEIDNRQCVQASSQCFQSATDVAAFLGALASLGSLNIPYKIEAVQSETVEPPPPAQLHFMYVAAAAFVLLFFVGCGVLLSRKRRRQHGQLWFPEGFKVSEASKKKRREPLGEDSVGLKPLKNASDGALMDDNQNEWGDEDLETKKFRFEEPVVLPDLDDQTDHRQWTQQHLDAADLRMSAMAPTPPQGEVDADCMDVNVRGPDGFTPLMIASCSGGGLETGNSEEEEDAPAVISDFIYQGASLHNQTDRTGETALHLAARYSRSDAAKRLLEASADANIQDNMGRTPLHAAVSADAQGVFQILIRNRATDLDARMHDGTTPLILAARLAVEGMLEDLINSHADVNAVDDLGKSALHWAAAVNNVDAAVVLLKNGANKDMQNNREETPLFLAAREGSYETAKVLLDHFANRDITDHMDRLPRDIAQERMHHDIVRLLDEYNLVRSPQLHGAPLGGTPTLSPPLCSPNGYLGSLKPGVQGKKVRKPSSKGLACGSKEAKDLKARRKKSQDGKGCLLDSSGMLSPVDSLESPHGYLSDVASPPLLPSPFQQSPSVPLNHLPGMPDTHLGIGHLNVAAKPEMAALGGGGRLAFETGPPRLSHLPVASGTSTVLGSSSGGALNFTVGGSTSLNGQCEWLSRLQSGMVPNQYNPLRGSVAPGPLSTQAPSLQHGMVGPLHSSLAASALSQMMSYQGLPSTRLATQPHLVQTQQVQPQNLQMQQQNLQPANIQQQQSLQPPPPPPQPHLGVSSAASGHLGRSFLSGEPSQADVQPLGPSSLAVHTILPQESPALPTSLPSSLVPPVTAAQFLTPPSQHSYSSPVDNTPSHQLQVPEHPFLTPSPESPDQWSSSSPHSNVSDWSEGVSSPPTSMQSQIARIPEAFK
Chain of Notch1 on U2OS hNotch1-Gal4 luciferase reporter cells (P46531 19-2555): as the sequence (P46531 19-2555 limits assumed) above

B1: WT DLL4 (N-EGF5, residues 27-400), C-terminally biotinylated (ligand)
chain: SGVFQLQLQEFINERGVLASGRPCEPGCRTFFRVCLKHFQAVVSPGPCTFGTVSTPVLGTNSFAVRDDSSGGGRNPLQLPFNFTWPGTFSLIIEAWHAPGDDLRPEALPPDALISKIAIQGSLAVGQNWLLDEQTSTLTRLRYSYRVICSDNYYGDNCSRLCKKRNDHFGHYVCQPDGNLSCLPGWTGEYCQQPICLSGCHEQNGYCSKPAECLCRPGWQGRLCNECIPHNGCRHGTCSTPWQCTCDEGWGGLFCDQDLNYCTHHSPCKNGATCSNSGQRSYTCTCRPGYTGVDCELELSECDSNPCRNGGSCKDQEDGYHCLCPPGYYGLHCEHSTLSCADSPCFNGGSCRERNQGANYACECPPNFTGSNCEGLNDIFEAQKIEWHE
modifications: biotin on the C-terminal BAP-tag (BirA ligase)
[1]
  EC50 of Notch1 activation, fluorescent reporter cells, biotinylated ligand on streptavidin plates: 16 nM

B2: DLL4^MAX (N-EGF5, residues 27-400), C-terminally biotinylated (ligand)
chain: B1 chain with G2S, F81L, I117F, H168Y, L180P, N231P, T245L, F254Y, S275R, Q279P
modifications: biotin on the C-terminal BAP-tag (BirA ligase)
notes: Used coupled to streptavidin (plates, beads, or as tetramers for cell staining); also called biotinylated Delta^MAX; C-terminally anchored Delta^MAX; not shown: His-tag
[1]
  EC50 of Notch1 activation, fluorescent reporter cells, biotinylated ligand on streptavidin plates: 1.7 nM
  Notch1 reporter activity with 25 µm coated beads, against DLL4 microbeads: 4.5 fold
[2]
  increase in Notch1 activation relative to control, Delta^MAX-coated streptavidin beads: 21 fold
  increase in Notch1 activation relative to control, oriented coupling on streptavidin plates: 50 fold
  luciferase reporter signalling at 50 nM immobilised ligand, against WT DLL4: 2 fold
[3]
  luciferase reporter signalling at 50 nM immobilised ligand, against WT DLL4: 2.5 fold
[4]
  luciferase reporter signalling at 50 nM immobilised ligand, against WT DLL4: 3 fold
[5]
  fold increase of MFI compared to WT DLL4: 4.7 fold

B3: human wild-type DLL4 (N-EGF5, residues 27-400), non-biotinylated (ligand)
chain: SGVFQLQLQEFINERGVLASGRPCEPGCRTFFRVCLKHFQAVVSPGPCTFGTVSTPVLGTNSFAVRDDSSGGGRNPLQLPFNFTWPGTFSLIIEAWHAPGDDLRPEALPPDALISKIAIQGSLAVGQNWLLDEQTSTLTRLRYSYRVICSDNYYGDNCSRLCKKRNDHFGHYVCQPDGNLSCLPGWTGEYCQQPICLSGCHEQNGYCSKPAECLCRPGWQGRLCNECIPHNGCRHGTCSTPWQCTCDEGWGGLFCDQDLNYCTHHSPCKNGATCSNSGQRSYTCTCRPGYTGVDCELELSECDSNPCRNGGSCKDQEDGYHCLCPPGYYGLHCEHSTLSCADSPCFNGGSCRERNQGANYACECPPNFTGSNCEHHHHHHHH
[1]
  EC50 of Notch1 activation, fluorescent reporter cells, ligand non-specifically adsorbed to plates: 2.3 ng/mm^2

B4: DLL4.v1 (N-EGF5), non-biotinylated (ligand)
chain: B3 chain with G2S, F81L, I117F, H168Y, L180P
notes: also called human DLL4 with the five E12 mutations (Site 1+Site 2)
[6]
  EC50 (read off the curve): ~100 nM
